Molecular target: T1, human complement factor H (human, UniProt P08603 19-1231)
T1 construct: complement factor H, human; used at 500 nM in the ELISA; also called FH; human FH
Assay: ELISA; 1 µg histidine-tagged CspZ coated on wells, blocked with 5% BSA in PBS; PBS (control), irrelevant human IgG, #1139c or #1193c (0.4-50 nM) added, then 500 nM human FH; bound FH detected with sheep anti-human FH and donkey anti-sheep HRP
Conditions: both partners purified

T1 sequence (P08603 19-1231): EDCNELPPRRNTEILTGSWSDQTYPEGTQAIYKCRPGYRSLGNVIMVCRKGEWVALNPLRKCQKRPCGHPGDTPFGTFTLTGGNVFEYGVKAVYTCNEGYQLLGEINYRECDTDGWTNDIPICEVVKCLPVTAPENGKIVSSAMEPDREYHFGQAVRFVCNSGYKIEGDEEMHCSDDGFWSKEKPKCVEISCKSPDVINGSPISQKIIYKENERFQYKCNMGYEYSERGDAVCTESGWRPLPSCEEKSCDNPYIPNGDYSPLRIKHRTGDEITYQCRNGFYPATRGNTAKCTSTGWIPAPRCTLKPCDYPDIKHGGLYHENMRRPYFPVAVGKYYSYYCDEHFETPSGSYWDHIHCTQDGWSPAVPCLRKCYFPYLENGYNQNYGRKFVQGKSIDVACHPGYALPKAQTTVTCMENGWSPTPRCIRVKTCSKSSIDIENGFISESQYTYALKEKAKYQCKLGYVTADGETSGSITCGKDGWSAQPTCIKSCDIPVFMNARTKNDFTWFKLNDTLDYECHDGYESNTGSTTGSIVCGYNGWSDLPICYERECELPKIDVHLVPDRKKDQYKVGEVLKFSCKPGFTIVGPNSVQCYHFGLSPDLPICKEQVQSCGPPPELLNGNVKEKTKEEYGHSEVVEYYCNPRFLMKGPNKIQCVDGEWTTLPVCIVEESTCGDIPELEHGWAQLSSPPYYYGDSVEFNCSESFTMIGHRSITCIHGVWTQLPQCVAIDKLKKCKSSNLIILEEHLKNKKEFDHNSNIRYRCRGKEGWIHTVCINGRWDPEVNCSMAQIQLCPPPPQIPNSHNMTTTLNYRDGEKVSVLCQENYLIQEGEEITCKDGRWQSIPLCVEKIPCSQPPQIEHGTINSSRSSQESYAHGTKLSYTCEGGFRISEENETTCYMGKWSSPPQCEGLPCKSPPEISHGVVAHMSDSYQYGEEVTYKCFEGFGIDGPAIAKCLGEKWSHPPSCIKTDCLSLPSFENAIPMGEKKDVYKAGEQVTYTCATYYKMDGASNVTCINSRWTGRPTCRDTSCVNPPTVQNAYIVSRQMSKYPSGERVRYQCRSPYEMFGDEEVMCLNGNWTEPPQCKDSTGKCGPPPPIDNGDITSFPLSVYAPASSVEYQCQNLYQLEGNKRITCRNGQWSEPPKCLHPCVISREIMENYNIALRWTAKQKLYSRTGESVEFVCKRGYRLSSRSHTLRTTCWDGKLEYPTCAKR

B1: histidine-tagged CspZ (B. burgdorferi B31 CspZ) (natural protein)
chain: RLNQRNINELKIFVEKAKYYSIKLDAIYNECTGAYNDIMTYSEGTFSDQSKVNQAISIFKKDNKIVNKFKELEKIIEEYKPMFLSKLIDDFAIELDQAVDNDVSNARHVADSYKKLRKSVVLAYIESFDVISSKFVDSKFVEASKKFVNKAKEFVEENDLIALECIVKTIGDMVNDREINSRSRYNNFYKKEADFLGAAVELEGAYKAIKQTLL
notes: CspZ (BbCRASP-2), outer surface protein of Borrelia burgdorferi strain B31; codon-optimised synthetic DNA in pET28a (BamHI/SalI); this is a surmise; also called BbCRASP-2
Question: Does B1 bind?
Answer: Result: binds
